The values below are quoted from earlier work in article PMC5467299.

One series addresses tPA (Homo sapiens) (UniProt P00750).
Series [1] addresses Plasminogen (Homo sapiens) (UniProt P00747).
UniProt P00747, sequence (P00747 20-810): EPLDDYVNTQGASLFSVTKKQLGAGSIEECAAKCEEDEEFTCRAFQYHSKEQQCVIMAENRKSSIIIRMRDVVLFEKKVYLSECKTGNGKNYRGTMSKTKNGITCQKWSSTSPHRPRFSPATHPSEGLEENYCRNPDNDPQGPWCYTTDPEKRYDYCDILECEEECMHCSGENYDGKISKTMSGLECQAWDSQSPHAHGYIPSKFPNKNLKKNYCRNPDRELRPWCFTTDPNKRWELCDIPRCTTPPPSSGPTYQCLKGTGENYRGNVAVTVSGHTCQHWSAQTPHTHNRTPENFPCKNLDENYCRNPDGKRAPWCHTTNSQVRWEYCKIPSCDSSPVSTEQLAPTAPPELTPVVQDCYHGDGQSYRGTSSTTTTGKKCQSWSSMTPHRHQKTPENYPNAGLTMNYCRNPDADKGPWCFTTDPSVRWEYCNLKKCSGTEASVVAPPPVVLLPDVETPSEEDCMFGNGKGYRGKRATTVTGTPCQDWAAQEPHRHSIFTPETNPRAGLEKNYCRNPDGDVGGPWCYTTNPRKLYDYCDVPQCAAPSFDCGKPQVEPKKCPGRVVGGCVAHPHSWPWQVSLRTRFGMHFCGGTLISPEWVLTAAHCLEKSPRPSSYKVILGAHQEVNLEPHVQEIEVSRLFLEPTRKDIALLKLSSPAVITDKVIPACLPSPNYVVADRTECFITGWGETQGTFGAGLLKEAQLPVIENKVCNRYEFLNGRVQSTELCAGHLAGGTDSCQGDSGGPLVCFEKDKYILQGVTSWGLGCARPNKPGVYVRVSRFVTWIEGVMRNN

UniProt P00750, sequence (P00750 36-562): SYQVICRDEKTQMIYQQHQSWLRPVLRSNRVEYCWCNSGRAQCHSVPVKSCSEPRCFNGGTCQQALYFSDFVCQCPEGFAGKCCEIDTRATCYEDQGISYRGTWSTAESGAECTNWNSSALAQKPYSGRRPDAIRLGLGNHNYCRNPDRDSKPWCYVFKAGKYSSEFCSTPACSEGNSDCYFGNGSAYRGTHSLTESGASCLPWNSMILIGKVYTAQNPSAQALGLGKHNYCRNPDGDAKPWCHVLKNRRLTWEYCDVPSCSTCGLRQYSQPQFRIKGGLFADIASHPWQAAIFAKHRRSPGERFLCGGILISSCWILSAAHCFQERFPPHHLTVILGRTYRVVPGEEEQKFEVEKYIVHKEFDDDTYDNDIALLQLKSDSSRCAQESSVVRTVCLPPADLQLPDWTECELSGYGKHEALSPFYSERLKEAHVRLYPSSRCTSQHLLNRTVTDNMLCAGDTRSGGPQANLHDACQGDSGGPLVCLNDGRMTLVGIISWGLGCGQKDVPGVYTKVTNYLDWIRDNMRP

The term Kd denotes a measure of binding affinity in units of concentration. With “Fibrin alpha chain 148-160 (from UniProt P02671)”, the dissociation constant (Kd) (with tPA (Homo sapiens); in series [1]) was 1000 nM throughout.
